Patent US20250296994A1 (SYSMEX, published 2025)

What was measured:
human Crtac1A = target: T1, human Crtac1A (human, UniProt Q9NQ79 28-661); experiment: immunoprecipitation from human CSF and serum, then immunoblotting (Wes)
T1 construct: Recombinant protein (IB control sample) or native protein in human CSF and serum; also called rCrtac1A
T1 sequence: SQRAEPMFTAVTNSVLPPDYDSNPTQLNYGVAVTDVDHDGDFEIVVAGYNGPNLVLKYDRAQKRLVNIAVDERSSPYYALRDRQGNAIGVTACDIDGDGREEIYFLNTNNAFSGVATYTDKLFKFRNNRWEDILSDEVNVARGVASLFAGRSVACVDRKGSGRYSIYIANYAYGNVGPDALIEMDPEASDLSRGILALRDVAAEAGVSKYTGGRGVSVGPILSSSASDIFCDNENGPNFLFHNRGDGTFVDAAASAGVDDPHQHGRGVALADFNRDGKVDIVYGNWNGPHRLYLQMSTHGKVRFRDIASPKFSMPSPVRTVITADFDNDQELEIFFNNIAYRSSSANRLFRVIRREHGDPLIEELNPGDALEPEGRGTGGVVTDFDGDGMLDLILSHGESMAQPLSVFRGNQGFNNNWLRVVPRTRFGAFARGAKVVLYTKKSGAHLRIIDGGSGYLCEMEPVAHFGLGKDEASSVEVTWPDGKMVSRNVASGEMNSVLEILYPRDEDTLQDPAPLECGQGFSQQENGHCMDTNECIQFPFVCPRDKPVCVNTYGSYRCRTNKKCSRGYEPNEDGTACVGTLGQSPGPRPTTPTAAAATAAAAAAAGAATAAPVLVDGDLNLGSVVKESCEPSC
Experimental: For human CSF and human serum, immunoprecipitation using a monoclonal antibody purified from the culture supernatant of hybridomas of clones 1B4 and 15C2 was performed, and IB analysis by Wes was performed. For comparison, immunoprecipitation (IP) using an anti-hCrtac1 antibody (RD) and IB analysis using an anti-rat LOTUS antibody (ITM, 45-12C) were performed.
As a sample, CSF (300 μL) and serum (500 μL) were used per antibody. Each sample and protein G sepharose were mixed and rotated at 4° C. for 1 hour to remove contaminants that non-specifically bind to protein G from each sample in advance. Protein G solid phase-treated magnetic particles (60 μL, Veritas, Dynabeads (registered trademark) Protein G) were dispensed into 1.5-mL tubes, and washed twice with dilution buffer III (500 μL, 0.02% Tween (registered trademark) 20/PBS (pH 7.4)). Magnetic collection was performed to remove the supernatant, and each antibody (24 μg) and the above dilution buffer III (200 μL) were added to the magnetic particles. The tube was stirred at room temperature for 1 hour, and then collected to remove the supernatant. The magnetic particles were washed five times with the above dilution buffer III (300 μL), and then collected to remove supernatant. Each sample from which impurities were removed was added to the magnetic particles, and the tube was stirred at room temperature for 5 hours. […]

[1] = target: T2, recombinant Crtac1B fragment #6 (human, UniProt Q9NQ79 28-606); experiment: antigen immobilized ELISA, hybridoma culture supernatant, color development at 655 nm same as plate without antigen
T2 construct: also called fCrtac1B (1-607)
T2 sequence: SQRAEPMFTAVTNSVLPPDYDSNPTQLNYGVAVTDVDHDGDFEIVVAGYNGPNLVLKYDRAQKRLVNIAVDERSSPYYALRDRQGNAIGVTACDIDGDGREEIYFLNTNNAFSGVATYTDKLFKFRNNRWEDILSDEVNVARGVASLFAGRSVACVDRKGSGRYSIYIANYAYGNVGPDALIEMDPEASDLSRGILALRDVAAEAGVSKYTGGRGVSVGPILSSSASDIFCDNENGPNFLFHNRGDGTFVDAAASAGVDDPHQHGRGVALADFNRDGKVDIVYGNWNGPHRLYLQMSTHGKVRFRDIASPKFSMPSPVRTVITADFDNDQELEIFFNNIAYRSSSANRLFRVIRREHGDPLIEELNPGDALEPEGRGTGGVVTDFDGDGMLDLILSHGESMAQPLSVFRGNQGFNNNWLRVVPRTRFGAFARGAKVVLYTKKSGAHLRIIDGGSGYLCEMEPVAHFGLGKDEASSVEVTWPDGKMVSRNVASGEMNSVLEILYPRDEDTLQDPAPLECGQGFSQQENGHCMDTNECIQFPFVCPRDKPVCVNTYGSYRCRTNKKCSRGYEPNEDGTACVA
Experimental: (§1) A positive antigen (50 μL) and a negative control (50 μL) were added to each well of a 96 well plate, respectively. Then, the plate was incubated at 4° C. overnight, and the positive antigen and the negative control were immobilized in the well to obtain an antigen immobilized plate. Each well was washed twice with a washing solution (250 μL, 0.05% Tween (registered trademark) 20/20 mM potassium phosphate buffer (pH 7.4), 150 mM NaCl). To each well was added a blocking buffer (250 μL, 5% skim milk/20 mM potassium phosphate buffer (pH 7.4), 150 mM NaCl), and blocked at room temperature for 90 minutes. Culture supernatant (50 μL) of each hybridoma selected by primary screening was added to each well, and the cells were incubated at 37° C. for 1 hour. Each well was washed three times with a washing solution (250 μL). The HRP-labeled anti-mouse IgG antibody (MBL, product number 330) was diluted 1:1,000 with dilution buffer II (1% skim milk/20 mM potassium phosphate buffer (pH 7.4), 150 mM NaCl). A solution (50 μL) of this labeled antibody was added to each well, and the well was incubated at 37° C. for 1 hour. Each well was washed five times with a washing solution (250 μL). Chemical chromogenic substrate solutions (Bio-Rad, TMB Peroxidase EIA Substrate Kit) were added to respective wells at 50 μL, and the plate was allowed to stand at room temperature under shading for 30 minutes. The plate was set in a microplate reader (Thermo Fisher Scientific, Varioskan (registered trademark) Flash), and the color development intensity at 655 nm was measured for each well.
(§2) Reactivity of the monoclonal antibody contained in the culture supernatant of the hybridomas of clones 1B4 and 15C2 to the antigen was confirmed by ELISA using the 7 recombinant Crtac1B fragments described above. A specific operation was the same as that of the antigen immobilized ELISA method of Example 1. For comparison, ELISA was performed in the same manner using a 96 well plate in which no antigen was immobilized.
(§3) In addition, as to these monoclonal antibodies, the color development intensity when the recombinant Crtac1B fragments of #6 and #7 were used was substantially the same as that when a plate without immobilizing the antigen was used.

[2] = target: T3, recombinant Crtac1B fragment #7 (negative control) (human, UniProt Q9NQ79 28-606); experiment: as above
T3 construct: also called fCrtac1B (1-606)
T3 sequence: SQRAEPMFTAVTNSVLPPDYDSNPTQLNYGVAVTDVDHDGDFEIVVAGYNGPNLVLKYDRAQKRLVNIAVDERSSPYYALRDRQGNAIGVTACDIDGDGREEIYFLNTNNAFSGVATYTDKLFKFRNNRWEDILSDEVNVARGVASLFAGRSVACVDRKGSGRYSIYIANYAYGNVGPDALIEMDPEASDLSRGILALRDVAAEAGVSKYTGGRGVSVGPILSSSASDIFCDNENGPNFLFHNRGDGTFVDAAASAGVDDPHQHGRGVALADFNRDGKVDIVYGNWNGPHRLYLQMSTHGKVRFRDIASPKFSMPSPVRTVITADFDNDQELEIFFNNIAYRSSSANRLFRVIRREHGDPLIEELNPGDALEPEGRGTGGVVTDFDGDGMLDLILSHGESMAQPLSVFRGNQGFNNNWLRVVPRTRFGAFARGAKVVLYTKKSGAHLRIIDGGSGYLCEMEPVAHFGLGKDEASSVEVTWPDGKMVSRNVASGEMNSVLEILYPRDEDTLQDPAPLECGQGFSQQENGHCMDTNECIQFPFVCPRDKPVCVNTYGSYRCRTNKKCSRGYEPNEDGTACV
Experimental: as §1, §2, §3

Measured: binding result

B1: monoclonal antibody derived from the hybridoma of clone 1B4 (antibody, mouse IgG1, kappa, V domains shown)
VH: EVQLQQFGAELVKPGASVKISCKASGYTFTDYNMDWVKQSHGKSLEWIGDINPNYDSSSYNQKFKGKATLTVDKSSSTAYMELRSLTSEDTAVYYCTRSGGTYWGQGTLVTVSA
VL: DIQMNQSPSSLSASLGDTITITCHASQNINVWLSWYQQKPGNIPKLLIYKASNLHTGVPSRFSGSGSGTGFSLTISSLQPEDIATYYCQQAQSYPRTFGGGTKLEIKR
notes: It is kept apart because the two clones were tested separately; Mouse IgG1; Leader ranges were derived as for m1
no binding: all assays above
